Results as given in the DeepSol protein solubility set.

test: soluble on expression in E. coli; label from the status in PepcDB or PDB records

Sequence | soluble on expression in E. coli
GIDVIGKKMTLCQLYAKQNAVRPNVKANTKSGRKYLMEILKNDRLGARSIDSIKPSDAKEWAIRMSENGFAYSTINNYKRSLRASFYIAIQDDYVRKNPFDFQLNTVIDDDTIPKTVLTSEQEARLLDFAKSDTVYHKNYDEILILLKTGLRISELCGLTVSDLDFENHLISVDHQLLRNTELGYYIETPKTKSSERQIPMEATCQALKRTLAKRDDRKCVEIDGYSHFLFLNRKGYPKTSGDFDRILRNLIKKYNKYHEEKLPHITPHTLRHTFCTNCANAGMNPKALQYIMGHANITMTLNYYAHATYKFGYG | not soluble
MDLPKAYDPKSVEPKWAEKWAKNPFVANPKSGKPPFVIFMPPPNVTGSLHMGHALDNSLQDALIRYKRMRGFEAVWLPGTDHAGIATQVVVERLLLKEGKTRHDLGREKFLERVWQWKEESGGTILKQLKRLGASADWSREAFTMDEKRSRAVRYAFSRYYHEGLAYRAPRLVNWCPRCETTLSDLEVETEPTPGKLYTLRYEVEGGGFIEIATVRPETVFADQAIAVHPEDERYRHLLGKRARIPLTEVWIPILADPAVEKDFGTGALKVTPAHDPLDYEIGERHGLKPVSVINLEGRMEGERVPEALRGLDRFEARRKAVELFREAGHLVKEEDYTIALATCSRCGTPIEYAIFPQWWLRMRPLAEEVLKGLRRGDIAFVPERWKKVNMDWLENVKDWNISRQLWWGHQIPAWYCEDCQAVNVPRPERYLEDPTSCEACGSPRLKRDEDVFDTWFSSALWPLSTLGWPEETEDLKAFYPGDVLVTGYDILFLWVSRMEVSGYHFMGERPFKTVLLHGLVLDEKGQKMSKSKGNVIDPLEMVERYGADALRFALIYLATGGQDIRLDLRWLEMARNFANKLYNAARFVLLSREGFQAKEDTPTLADRFMRSRLSRGVEEITALYEALDLAQAAREVYELVWSEFCDWYLEAAKPALKAGNAHTLRTLEEVLAVLLKLLHPMMPFLTSELYQALTGKEELALEAWPEPGGRDEEAERAFEALKQAVTAVRALKAEAGLPPAQEVRVYLEGETAPVEENLEVFRFLSRADLLPERPAKALVKAMPRVTARMPLEGLLDVEEWRRRQEKRLKELLALAERSQRKLASPGFREKAPKEVVEAEEARLKENLEQAERIREALSQIG | soluble
MGSDKIHHHHHHMNIEGNIAIICITENGKKLALKINSLVNNCVIYQVKNKKSNLVVEETCVHTVQKKLSDFVGEIFSKFDYIVFIMATGIVVRSIAPYIISKFSDPAILVMDEKGKNVISLLSGHIGGANSLTQYISSLIDANPVITTATDINQKASLDMIAKKLNAHIDNFRESVKEVNSMLVNNKCVGLYVDEGYQVDTRGFKLIESKDELRDSFSNTYIEKLVVVSNKINCIEDIENLNLDNKFEHCYSTQKIIKVIPRDIVIGIGCRRNTDSELMYNSLEEFLNKQNIDIRAINTVGSIELKKDEKAIIELSKILKVPFKTFSVDEISKVDNLFDKSDFVKKNVGVYSVAEPVAYLLSKGNLLVEKHKYKGITFSVGRIKI | not soluble
MAGGEDRGDGEPVSVVTVRVQYLEDTDPFASANFPEPRRAPTCSLDGALPLGAQIPAVHRLLGAPLKLEDSALQVSPSGYYLDTELSLEEQREMLEGFYEEISKGRKPTLILRTQLSVRVNAILEKLYSSSGPELRRSLFSLKQIFQEDKDLVPEFVHSEGLSCLIRVGAAADHNYQSYILRALGQLMLFVDGMLGVVAHSDTIQWLYTLCASLSRLVVKTALKLLLVFVEYSENNAPLFIRAVNSVASTTGAPPWANLVSILEEKNGADPELLVYTVTLINKTLAALPDQDSFYDVTDALEQQGMEALVQRHLGTAGTDVDLRTQLVLYENALKLEDG | soluble
MKQKNENAPRPGGAGRKPKADPAVFRYSISFNAIDHARFLALFDQSGMRTKAHFITARIFGEPFKVIKIDKAAVEYYTRLTALYSQYRGIAVNYNQVVKALNTNFSEKKALAFLYKLEKATIELADLNRQIIELTREFETRWLQR | not soluble
MPFENAPHLVFWEVTKACPLTCKHCRANAIDKPLPGELNTEESRKLLEDIARFGKVVIVFTGGDPLSRSDIFELMEYAKSLGLVVSIAPSPSHRLDDETMKIISNYARYMSISLDGATSQTHDWLRGLGSYKYALRGIELGLKYGIQVQVNTLVWKKSYSELPFVVKLLKEMGVKIWEVFFLIPVGRGTTELDIPRDKYKDVIDFLVEATRYDLIVRTVEAPFFRRAKLEYTPATTNDNELVSTLRELLGEPVKEADKSILPTRDGAGVIFIGYNGDVYPSGFLPLYLGNVKKESLVDIYRKSEVLKKIKDSRFEGKCGICKYNNICGGSRARAFAVYNNPFAEDPMCPY | not soluble
GKVNIIVPQYVRCPDICHYETLIMKSLMIKLFQENSLDDVVFVTVEVDPWRGSLEEADMYIKESTASLGFTPPWIWVGGNMEPLETLYKQLGLSVQLDSSTGLIVHTAGFYIVDRNGILLYYVKVEDEGWKNPGKVADVLEYVVNDALSK | not soluble
MSLKLTRLSLWHIPLTSHETYYMAGGKTCDTTMTTLIRLDTDSGLSGWGEVCPIPHYLPAYADGVAPALTELAPIILGADPLGAEALMERCNAYLLGHDYAKSALDIALWDITARAAGLPLHALLGGRAMADMPLYHSITCVAPDEMARIARDAQAQGMTQFQVKLGADGDWQADVARLSHVREAVGPGPLVYGDWNCGSDSLTASRVGRAVAHLDVMLEQPCRTIQECAAVRDATGLPMKLDETAHDIPSLLDGHRRGCMDAVALKLSKFGGLSATRRARDLCLALGTRMCIEDTWGSDVTTAALLHLAAATPARGLMNTCDLSHYVGPRLAPDGPTRHMGRIAPPEGPGLGITPDMDVLGTPQLILDEGHHHHHH | soluble
MRETIPIKYIDTIEINKLSIQDLEDLSSCKYKLLSAYLIGKIPANKILDADELEIYHNERTKKILAKAIKARKLVIVLKATRLCNLRCTYCHSWAEGPNQTILFSTLIHIVRQILAIPNVNRFEFVWHGGEVTLLKPAFFKKLIWLQEQFKRPEQYITNTMQSNIVNISDEWLIFIKGIGMNVGISLDGIPAVNDKRRVDFRGRGTSDRIAKGIKKLQKYDILYGALIVVDREVYQTDMREMLDYFILIELNGIEFLNIVPDNRLTAGEDIGNNFISYAEFIKFLSALFVIWIKGYREKIHIAIFEDFISVLEHPEKKLSACYWSGNCSQEIITLEPNGDVSPCDKYRGDAGSIYGSLLKTDLAGLLTQSSHNQQAIDEEVAATRKMQHCEWFSICHGGCPHDRVINRRHTKGYNDECCGTGKLLATIKAYLADIR | not soluble
GPGSMAKKEVVWLGTPTEADGSELSSPFTSRIGGSAVLFREAPTYSIFNCPKCRSSRWVSLLTQIYAPLDVYDRIVYVLICSSCSEGKGSFCFAVRSQNFNPSYVQSSPAPVVGGGEDEGITFVEDGDWGDDDPKYVDEGPNEVCITNLTCTTMADECKVGSPTQSTDVSSVLVPHGTKVPVEGFCYPCFVLNIFEEPPKPKLCYGTVPDQLLKAQQTYGEDAVETTVVEDEDEPLAEKLLRKYVDRIGRVPSQCVRWGPGQKPLRSSPAPIVIPRCPRCSNERRYELQLTSPIIYFLTKGKEEKDHSLHFGSVLVYTCGGNCNVQPYSLEHCVVEDEV | not soluble
MSLKIDSIIFDLDGTLWNSIEGVCEAWKVVLKRHSNINKIITPKDIKASMGLQIDEIGKLLFPEEDEKMQLQLMNECCDEEKLYLGEHGGKLFAKLEPTLNKLSQKYKLFIVSNCEDGYIQSFFKAHGLNKYFTDFECSGVTGLSKGENNKLIIKRNSLKNPVYVGDTLKDFESAKIANIPFVYARYGFGDVNEYDYVIDSFEEMLTLDEGHHHHHH | soluble
MAHHHHHHMGGAHNEGVQDGGAQDATTLYDELYLLFDEYIVRNCKQPNTYESLFCKKEFVQFAKLHGTSVVVTSPKKEIKNKDEIIDELIYAFKLFAKYTSMCDFFSKNEEVDDINTIYLKFLLIPYILGVLCYETISMEIRSDRLKEAKLYFGEFINVVNVYKIAPVEDYLLDEGGEVNQAMNRRNIKVKRAKDEKKLQDFYDDMIKMNVKKGSSQNYNHLCFADHMEEEQIREIYLSLIKCKCLQTLNMMDLIDTEIEVLEMRNRQQVQDKQHQNGKPTQGTKDTHDGQPPHQNKHPKDGIKKPWLFTIKKNMPLADMTQMRNYYRDLVFTPAHNLPTISLEECAKIEMEYALKGEGMAPRSEEERRGNPKSGTIKGAAQNGTDDEEDYEKSSKEESEKELMDREWDDWKDMHQKGIGNKNRNVA | soluble
MGSDKIHHHHHHMSNDETVEKVTQQVSELKSTDVKEQVVTPWDVEGGVDEQGRAQNIDYDKLIKQFGTKPVNEETLKRFKQVTGREPHHFLRKGLFFSERDFTKILDLYEQGKPFFLYTGRGPSSDSMHLGHMIPFVFTKWLQEVFDVPLVIELTDDEKFLFKHKLTINDVKNFARENAKDIIAVGFDPKNTFIFSDLQYMGGAFYETVVRVSRQITGSTAKAVFGFNDSDCIGKFHFASIQIATAFPSSFPNVLGLPDKTPCLIPCAIDQDPYFRVCRDVADKLKYSKPALLHSRFFPALQGSTTKMSASDDTTAIFMTDTPKQIQKKINKYAFSGGQVSADLHRELGGNPDVDVAYQYLSFFKDDDVFLKECYDKYKSGELLSGEMKKLCIETLQEFVKAFQERRAQVDEETLDKFMVPHKLVWGEKERLVAPKPKTKQEKK | not soluble
NKFECNLVHSKVPMGKFYFRSEPNNKISFISDIRGEGKEWQGATLISQNAPWGEELYRKVESSLTVTKPSRRFVFRKGAPSLMKAIAGGSWITLVLEGKDASALSEVRIPTIQIQKALGEFNACRERLPK | not soluble
SSLIKKIEENERKDTLNTLQNMFPDMDPSLIEDVCIAAASRIGPCVDALLSLSE | soluble
MGSDKIHHHHHHMSKSITRKIQLTGGSTYIVSLPKEWIKALSLSAGDEVEIYQDTDMKLLIVPKSANTTDQKEIKKIIHCDNVTSEAIIREFIAYYIAGFSSVSITCPRMSSSTRAYIKDVVRRRLLGAEVIEEDVSTISIQFLVDEKELSIKKAISRAFTISYNMLRDSLEAISKADIELAKEISGRDDEVDRFFFYIARQLTISVKAINVLDSEGYNLTQMVDIYSVAKTIERVGDHANRIASLVEDVSKFSNKEDLVNLGLTILESYKSAMNAFLNEKKDIAHSLISNIEIFEKLRELQEIAIKSNDNPKIITSTSMTVESLRRVARYSADIAEATIDILAKSNK | not soluble
MGSDKIHHHHHHMLIYHYTTVDTFLKILDSKAIWASDLSKMNDPQEFTIGIELIKKFYQKKFPDLLHWFENDRFVGLDNEQLLLGCSFSENPDDLSQWRAYGDDGKGVVIGINRRILSASNTLTIPAFYKKDERTASFVHFHKVIYDKQEFENSVKELLDNIGDFINDTVESFKLSIGLSRLACSFKSDFYKTEQEIRAILEHSKRSDIYLDESLKKHKLFDVKFRLSQFGLVPYCKVNLSNADASSIQTVKLGPKCNISKKDLEFMLLATGNKDILVSTSAGQYR | not soluble
MSLEPDNQTPLKILVTGASGFVGLRVLTQAQNIGYALVAQSRSQQPYSFEQVLLDITPNTDWERALVGVDCVVHCAARVHQMQETEADALKAYRDVNTQGTLNLAKQAVSAGVKRFIFLSSIKVNGEQTKAGSAFQHDDQHIPSDPYGLSKYEAEQQLLELAAETGLEVVIIRPPLVYGEGVKANFLSMMNWVKKQIPLPLGAVGNMRSLVYLDNLVDLILVCCQHPKAAGEIFLVSDNHDVSLTTLLRTIAQAMQIRPRLLPIPQTGLQWLLRLLGKPELGQRLCGNLQLDIAHTQKTLHWSPPVSFEQGIARTVNFYLSQSSKEGHHHHHH | soluble
